Our source for the stoichiometry N values is paper doi:10.1101/292672.

This assay deals with SARS-CoV S 2P ectodomain (SARS-CoV (Tor2 strain)) (UniProt P59594). Description: cryo-EM structure.

“SARS-CoV S 2P ectodomain (from UniProt P59594 14-1190) (domain or fragment)” displayed a stoichiometry N of 3.
